This is an account of results in a protein production outcome set (Wang et al. 2014).
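Also: failed if final PepcDB status was selected cloned or expressed and not failed if soluble or beyond.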

This data set is described as follows: label from the status in PepcDB records.
With “MKNKTIISKQNLVLIVIMVGATLTDQLSKIWITSNLQLGESIEIIPSFFKITYAQNTGAAWSILEGQMTFFYVITLVALILLGWYFYRLKDYQIIQKIGVALMVSGTLGNFIDRLLFQYVRDSLDFHILGYNFPIFNVADVLLICGVLFIIIDEVLKSFGVSYKKM”, the protein production entry was “failed”.
For “MKNLEKCILCGSHNIVPHWKNVRSYNVSKCLDCSFLFLHEIIDDHELENYYSQSYFMASYAKTENNLIDAANNPKITAEAKEYANLIKLHHPEAHNVGEIGCSWGYLLYNLQNFGYSAKGFELSKTTAEMGSKQLGINITSGFFETQYNQFDVLILRHVLEHVPDPQDLLEKIYDSIKKDGLFILEGPNLDSISSRLFGKNVSWVSPPDHISFPNFISLIMACEKLGFTCIHKSSRRGRGISIFHQALLNSVGLMFGGKEKAKVNLGGINEKPNNQQLSSLKSAALKIVDFLDFLSSPMQPFLKQALLEEEMLIIFKKLEHHHHHH”, the protein production result is listed as “failed”.
Take “MKNLKIIWIYRLGLLLLVFLCLLVFLKIKPLWAPIIFVCKVAITPFLIACFIAYLLHPLIEKIHKEGMPRTLAILLIYILFFGGIGYGIYKGTPVVIKQLQEINEQFPQFTKMYDSWMDGVTEQTANFPSFIHEKVKQIFVGVETKIQALLNKVMSTARGVLDSLLIIFLIPFIVFYILKDYGEFYHIFWKLVPSKWRSTGQMLAKEIDKSLGSYIRGQLFVCLVLGGVSALSFWFIGMKYPLLLGIIIGVTDIIPYFGPILGAIPTLMIAATVSTSLLIKAGIAIAILQFVESNILSPYIVGKSLRMHPVIIMLALLVGGEVGGIVGLLISVPILAVIRTVIVHVRPLWKKEDMQ”: the protein production result was “failed”.
With “MKNLKNKHFALLYLVLFLVLAKLSPFIITALIMGLYLSIIIDYVARFLEVFIKKPRVLPRVISNVLVFLTIAYSAVNFFPVIVREAQKVFSEIDRIRSGLENIDIPGWLSSILSSISASFSEGALSLVNKIVGYVPSFITAAILIVITAFIVSSLKRLIKENVHYLFPTNPSDGKEFLKTTYTEFERFVGGQVLVAIFVGLFVGFGAFIFKIPSAFFLGMLAFVTDFVPYLGVVISAIPLLMLAFSVHGLSGLLIGTIILVAANQLEMWVLAPKIQSNTLNVHWFIILIMILILGDLFSFGGVLIALPFLIFLKNFWKQYVMGG” the entry was “failed”.
As for “MKNPIIDNIPCVLLAGGKSSRFITNNIQTNKALMPLKSYSSLLEYQYTRLLKLFKKVIISTKKSYELNAPYLLEKESDLFSPLFGIHNAFLTLQTPYIFFIPIDTPLVSFESIKALCGIKNFSVTYAKSPTKEHYLISLWHQNTLNALIYALKTQNYRLSDLVKNTSSVAINFDKEEEFLNLNTLKDYELAVQILKKRANG”, the protein production entry was “failed”.
As for “MKNRAWLYVILTCIFEIFWVFGFNTANTWWHWIIILGVIAVDFHFLSKACEHLATGTVYAVFAGAGTVGTFLMDVFLFGGSFSVGKLFFIVMVVAGVIGLKLADNKEETVEGAA”, the protein production result is given as “failed”.
Turning to “MKNRYIILSILLFSVACRKFEPYPVFSKLALKKAFVDLGTHKLATFSVIRNSNYLVVFESGLGDDHTIWNSSNIALKAADTIDVVTYDRANRGQSGNGPVPRDVARLQSELGSVIDSFANGRKVVLIGHSLGGFMIRAWAVNNPTKVAGMLFIDPSHEKAGLDSAQNQQAEDYMYGKWSSYGTNFGAALESREWVEDNMYMATLGNLPDVPVIVLTAMKVDPPNKVEILKPWYDAHESLGTGVTDFTHVSIPNSGHMVMIDQPQILLNYIHVLLAKLH”, the protein production entry was “failed”.
Regarding “MKNSENDYIQSLFQILPGLLTAFLVACLSKFLAIWLPSLGAATIAILLGIFLGNTFVRGANLNRGTKVAESKLLEFSVVLLGTTVTFQTIAQIGLQGVAFILIQMSLTIIFAYLIGKKLAFSDNMSLLMAGGNAVCGSSAIASIAPAIQADEEEKGQIITLVNLLGTVLMLTLPILSGILYGTNLLARSALIGGTLQSVGQVVASANMVNENAVQLAMLFKIMRIVLLVAVVYLFGRFKQSKTAESEAELVEVTKKSSALPWYVVGFFIACVFNSLIHFPVVISETAHFFSSWFEITALAAIGLRLDFKKFFQEGKRFLIYGLSVGTVQVVLAILLLALLQF”, the protein production entry is “failed”.
Regarding “MKNVEVLTGDPKKAILKLSAPMVVSNLIFTLYNLVDGIWVAGLGPDALSAVGLFFPIFFVFIAISFGLSVGANSAVSRRIGAKRYDAACVAATLAVAMGILVSIPMTLSVVFLNGVMVFLGADGEILRLAVDYGSIMVLGSVFLVFSNVSAGILNGEGNARMAMYANAAGSLLNMVLDPIFIYLLGYGIAGAAIASVISMALSSIVFSFWFLSGRSYVRFRVAGWNLPTVFDLLRVGMPASLSMLTMSVAFMLINRVVIETGGSEGLAAYTSAWRLIQFGFVPLFGVSAALTAVSGAAYGARNPRKIGESLNYTVKLLLAVDAAILALMVAFAPQIALIFTYTEVSAVMYEEIVRTIRIAAFVLLFAPLGVSSSAVFQGMGKGERSFAITVLRAIVFQVSLCYVLAVPFGFDGVLLGFVLGEALGCFTGFSWVRLTVRRLERCLLST”, the protein production entry is listed as “failed”.
As to “MKPALRRGLVWIGCTASSWGGLVLPSAWSPAAIAQTRAPTNQTGMQLQINGRAIAGQWVVEPASQGSFIWIEEVALRNGLGLELLPGLSTTRQAIRWFSDGRVAEGVEQVPARRQNGRRFLEVSSLARRSGWSLAVLADQLVIQLPAATLRNLRDGQQGANRRLVLDFDRPTPWEWDAIGQQLRFDGSVPAQLVPSLQRYGIQAEQQGDRTSLRLPAGLGVRVSSLGSPDRIFIDLPTTTGLLSPPAGLGSNPAPLTPAPPDLAGTQLQQRQVTVDGATFPVFVIQLDLRQPNVRLAPIWAGNGSLEGTQVLQAVARDRGAAIAINAGFFNRNNRLPLGAIRRDNIWYSGPILNRGAMAWNDQGEVLIDRLGLQETLQLSSGTRIPLVALNSGYVRAGAARYTEAWGNSYQTILDNEVVVTVQGDRVVSQSQADKAGSNRFTIPRNGYLIVLRSANSLRTSLVNGTTIQVLQQAQPSQFDRFPHALGGGPLLVKSGRVVVNPQAEGFSRAFEIEAAPRSAIGLMPDGRLVLVAAHEQNQGQGPTLPQMAAIMQQLGVVDALNFDGGSSTSLIVNGQLVNRARGSAARVHNGLGVFLGPTTPASLR”, the protein production entry is recorded as “failed”.
Regarding “MKPDIYENNREGILCVYKNEKWLVCIKNWKPDNDIEGIAHLEIHHSTDEQFILSAGKAILITAEKENDKFNIELTLMEKGKVYNVPAECWFYSITQKDTKMMYVQDSNCSMDNSDFCDLSKEEIEYIQTNARKLFEK”, the protein production entry is recorded as “not failed”.
As to “MKPLKEYLLIPTQMRVFETQTQAIETSLSVNAQTSESSEAFTVKKDPHEIKVTGKKSGESELVYDLAGFPIKKTKVHVLPDLKVIPGGQSIGVKLHSVGVLVGFHQINTSEGKKSPGETAGIEAGDIIIEMNGQKIEKMNDVAPFIQKAGKTGESLDLLIKRDKQKIKTKLIPEKDEGEGKYRIGLYIRDSAAGIGTMTFYEPKTKKYGALGHVISDMDTKKPIVVENGEIVKSTVTSIEKGTGGNPGEKLARFSSERKTIGDINRNSPFGIFGTLHQPIQNNISDQALPVAFSTEVKKGPAEILTVIDDDKVEKFDIEIVSTTPQKFPATKGMVLKITDPRLLKETGGIVQGMSGSPIIQNGKVIGAVTHVFVNDPTSGYGVHIEWMLSEAGIDIYGKEKASLEHHHHHH”, the protein production entry was “not failed”.
As to “MKPNNVNNQNKRHQSRWVITSATAMILTTLTIASQAAAADDTVTTTTNEPTNSQLNTNTQVNATQVNLKADTSTSVSTIKSDQSAVAATSPTTSTGSPSEHSSSVNTNPQQQSANPASQSQATTTSESTPTTDIKHPTQTAPAQTTSASTTEPTTESNTESATDSQAKATTTDNQASKQPSQQAVPASSNSTTTEVNTQSATSSASTDDKIVTNVNQEKLVLKTNQPVVRAISRTASENINDWMPNTLLQQEVLSQLRKQNPDRTWNSAADITKADMLLLTTYYGKDTYIDGKTSYSLEGLQYATNLTTVWLNNNLNAPSGSYYSDVTDISPLANLQKLQVVNIQQNRITDISPLANLKNLTEVDAAYNHISDFSPLKGFKNLKGTFSNQFITLPPAYISADNNIATLAIDCYLPDGSKVQLKPNNGVGETVFYKNGQLYVRWYFNGAGGGNYDSNGHIYYTNMKPQQPGLTGPTFNGTTVIPMDDYYFMTAASDGNNFVVVRPYVLAATAAPITVKYVDALTGESLVTADLTLNGIVGQPYTTQRIDDELPNYDFTNIVGNASGVFTADAQTVTYYYTRKDAGDITIHMVDTNGNLVYEPQILPGKHNLGNAYNLDAPTFDHFKLHQTIGNAAGVFTTDPQSITFVYVRLDAGNITVKYQDKQGHQLKPDKTVSGSQSLGQTYTTEPLGIENYTLMTTPANATGTFTDQEQTVIYVYVRRDAGQIVVKYQDSAGNPLAPDKLLDGKEQLGVAYQTAAISIPNFYLVATPANATGTFSTDTQTVIYQYARSNAGHITVKYQDANGTTLAPDDVLTGDGQLGRPYQTSAKTIENYRLIQTPANATGQFSDQAQTVIYVYTREDAGDITVQYLDENGQQLAADSVLSGQGQLGQPYETSPLNINGYTVKSTQGNTTGTYTVQPQRVVYIYERTAGQPVTAKYQDQDGKSIHPDVVHSGYLGDNYSTEQLVIDGYTFKAVQGDVSGTFGTSAKTVTYVYTESTPTIPDTQGTVTVHYVTKDGIKLNEPTVLSGKTGTTYQTVPLTFTDHELVGQPENATGLFTADNVDVTYVYQATDTTGTDDIIDPEEPEQPTKPIKPTTPETPNEPGTTVTQPDRIKPTQPAVAVKPAATVKPTLKPAAAQASLVKTTSPVTEHSAQLPQTDEQTGKLAVILGLLLSVVTLGFYGKNRQS”, the protein production entry is on record as “failed”.
With “MKPQVYHVDAFTSQPFRGNSAGVVFPADNLSEAQMQLIARELGHSETAFLLHSDDSDVRIRYFTPTVEVPICGHATVAAHYVRAKVLGLGNCTIWQTSLAGKHRVTIEKHNDDYRISLEQGTPGFEPPLEGETRAAIINALHLTEDDILPGLPIQVATTGHSKVMIPLKPEVDIDALSPDLNALTAISKKIGCNGFFPFQIRPGKNETDGRMFSPAIGIVEDPVTGNANGPMGAWLVHHNVLPHDGNVLRVKGHQGRALGRDGMIEVTVTIRDNQPEKVTISGTAVILFHAEWAIEL” the entry was “not failed”; with “MKPSCRPGAALEADRCPSFPDRSAATPHRGLAWAMAVVLIGGCATTRDIEQLQTTSQREPTNAQLKLKYMDERDRQVKDLLDGADRLRLIHDFDRAQVLLLQALRLDPGNERGRRIAAAIDVDRRNGAVLQEAERMMARGSYDGAAERVERVLAETPNDAGALRLYREISEKRRLQKQAAEEKNAAASIMRKPVSLQFRDANVRMVFEALSRTTGLSVIFDRDVRVDLKTTIFVSNASLEDTVDMILLQNQLAKKVLNANTVFIYPATPAKQQEYQDLKVRTFQLSNTDAKHIDTLLKNLLKIKEIVTDERANTVSIRATPETIRVAERMIAAQDLPEPEVMLEVEVLEVSRDRLTDLGIDWPNSFSLGTPSSASTWGALHHLTVNQLTASGLSVTANLKLTDTDANLLASPRIRTRNKEKAKILIGDKVPVISSSSVPSTSGPVYSQSIQYLDVGIKLEVEPQVYRDNDVGIKMSLEVSNITQIISSSNAQTGLSSLAYQIGTRNASTTLRLKDGETQILGGLIQDEDRDAANKVPGLGQLPVLGRLFSNHNGDHKKTEIVLQITPHIVRPQLAADADTREIWSGTDSTVRTEQLRLDPPGVAAPATPAAPAAPAAALPAPAAGVAVVSPGAVGGGTTGGEQTPKAAAPAAAGGVVPPNGAFGQPPAAPRTTPPPAMFGGRFMTTVPPPEGVVPPAPPAPAAAPAAVAAPAAAAPAAPAAGTAGPEAAAAVSPTEAAPPAPAPAAPYTPAPAAPAAAPPAASPPPIVPTPPSDMPSDNPLHPIPTGAY”, “failed”.
